“Also recorded” adds a separate entry of the source. Read-outs that look alike come from different tables or passages of the source. Peptide text beside a SMILES is read from it.
Assays:
SK-MES-1 cells [1] = test: Specific binding (blocking with unlabeled peptide) on SK-MES-1 cells; parameters: species or system human
Description: (§1) The in vitro receptor binding of the^ 99mTc-labeled peptide was evaluated using SK-MES-1 a human lung squamous cell carcinoma, SKOV-3 human ovarian carcinoma, and A-549 human lung adenocarcinoma epithelial and MCF-7 human breast cancer cell lines. All cell lines were kept at 37 °C in a 5% CO2 incubator and were maintained in Dulbecco’s DMEM-high glucose supplemented with 10% FBS. Cells were plated in 24-well plates at a density of 4×10^5 cells/well in 1 ml of complete medium and incubated for 24 hr to allow in cells to settle. Following a wash with cold serum-free media or PBS, 40 nM radiolabeled peptides in the full medium were given to the cells, which were then incubated at 37 °C for 2 hr. Finally, cells in culture plates were trypsinized and released, and radioactivity in the cells was measured. To determine specific versus nonspecific binding, SK-MES-1 cells were seeded into 12-well plates at a density of 5×10^5 cells/well and incubated with unlabeled peptides at a concentration 500-fold higher than the labeled peptide for 20 min at 37 °C, followed by the addition of the radiolabeled peptide to the wells. These cells were incubated for 2 hr at 37 °C in a humidified incubator.

[2] = system: SK-MES-1, A-549, SKOV-3 and MCF-7 cells; test: In vitro receptor binding of radiolabeled peptides on four cell lines; parameters: species or system human; conditions: 2 hr at 37 °C
Description: as §1

SK-MES-1 tumors = test: Biodistribution in SK-MES-1 xenografted nude mice; format: in vivo, female C57 nu/nu mice; conditions: SK-MES-1 xenograft nude mice, n=4; for Intestine uptake (with contents): mean ± SD
Description: (§2) The tumor biodistribution and targeting properties of the radiolabeled peptides were carried out in female C57 nu/nu mice bearing SK-MES-1 (Pasture Institute, North Branch and Amol, Iran). The tumor was grafted by subcutaneous injection of SK-MES-1 cells at a concentration of 4×10^6 cells/mouse into the right front flank of the mice and left to grow over a period of 20 days. The mice were ready for biodistribution when tumor size reached 0.7–1 cm^3 in mean diameter, all mice received intravenous co-injections of (^99mTc) Tc-HYNIC-(Ser)3-J18 peptide 1 or (^99mTc )Tc-HYNIC-(Ser)3-J18 peptide 2 (1 μg in 100 μl buffer) after 1, 2, and 4 hr post-injection, respectively (n=4 mice per group). In order to measure the radiopeptides’ nonspecific uptake of the radiopeptides, one group of four animals was injected with 300 μg of non-labeled peptide in a 50 μl buffer. The mice in the blocking group were euthanized 2 hr after the injection. Mice organ and tissue samples were collected, and radioactivity uptake was calculated as a percentage of the administered dose per gram tissue (%ID/g).

[3] = Biodistribution in SK-MES-1 xenografted nude mice; format: in vivo, female C57 nu/nu mice; conditions: female, C57 nu/nu, mouse, in vivo, iv, total radioactivity, SK-MES-1 xenograft nude mice, n=4; for tissue uptake at 1 h / tissue uptake at 2 h / tissue uptake at 4 h: mean ± SD
Description: as §2

A-549 cells = conditions: previously reported, listed as 99mTc-HYNIC-(Ser)3-J18 (Tricine); cited from earlier work
Description: Table 1 Overview of affinity binding ^99mTc-HYNIC-(Ser)3-J18 on SK-MES-1 vs A-549 cell line | column: A-549 / Tricine; A-549 / tricine/EDDA

SK-MES-1 cells [4] = test: Saturation binding assay on SK-MES-1 cells; parameters: species or system human
Description: The affinities of (^99mTc) Tc-HYNIC-peptides were determined utilizing a saturation binding experiment with cultivated cells in vitro for determination of the dissociation constant as KD and the number of binding sites per cell (Bmax). SK-MES-1 cells were incubated for 2 hr at 37 °C with increasing concentrations of (^99mTc) Tc- HYNIC- peptides (0.1, 0.5, 1, 2.5, 5, 25, and 50 nM). One dish served as a blocking sample, and it was immersed in a blocking solution containing a 500-fold excess of the non-labeled peptide. For each concentration, three dishes were utilized. Following incubation, the media was withdrawn, and the cells were trypsinized and collected for Gamma counter activity measurement. Prism 5 software (Ver. 5.0) was used to examine the particular binding data using nonlinear regression.

[5] = 1 ug, i.v. 1 μg in 100 μl, read-out: Muscle uptake
[6] = 1 ug, i.v. 1 μg in 100 μl, read-out: Spleen uptake
[7] = 1 ug, i.v. 1 μg in 100 μl, read-out: Tumor uptake
[8] = 1 ug, read-out: Tumor/blood ratio
[9] = 1 ug, read-out: Tumor/bone ratio
[10] = 1 ug, read-out: Tumor/liver ratio
[11] = 1 ug, read-out: Tumor/muscle ratio

SMILES: CC(C)C[C@H](NC(=O)[C@H](CO)NC(=O)[C@H](CCCNC(=N)N)NC(=O)[C@H](CO)NC(=O)[C@H](CO)NC(=O)[C@H](CO)NC(=O)c1ccc(NN)nc1)C(=O)N[C@@H](Cc1c[nH]c2ccccc12)C(=O)N[C@@H](CO)C(=O)N[C@@H](CC(=O)O)C(=O)N[C@@H](Cc1ccccc1)C(=O)N[C@@H](Cc1ccc(O)cc1)C(=O)N[C@@H](C)C(=O)N[C@@H](CO)C(=O)N[C@@H](C)C(=O)N[C@@H](CO)C(=O)N[C@@H](CCCNC(=N)N)C(=O)NCC(=O)N1CCC[C@H]1C(=O)O [Peptide 1, (^99mTc)Tc-HYNIC-(Ser)3-J18 with tricine, metal not drawn] (HELM PEPTIDE1{[NNc1ccc(C(=O)[*:2])cn1].S.S.S.R.S.L.W.S.D.F.Y.A.S.A.S.R.G.P}$$$$V2.0; C-terminus assumed)
- reduction of binding by pre-saturation with unlabeled J18 peptide (SK-MES-1 cells [1]; 500-fold unlabeled peptide 20 min at 37 °C, then radiolabeled peptide 2 hr at 37 °C, listed as 99mTc-peptide 1): ~11.5 fold
- specific binding (SK-MES-1 cells [1]; abstract, listed as 99mTc-peptide 1): 11.5 fold
- specific binding to SK-MES-1, in words (SK-MES-1 cells [1]; listed as 99mTc-J18 peptide with tricine co-ligand): higher specific binding to SK-MES-1 in comparison with tricine/EDDA coligand
- specific binding to SK-MES-1, in words (SK-MES-1 cells [1]; listed as 99mTc-peptide 1): high specific binding; also recorded: high specificity
- cellular affinity, in words ([2]; 40 nM radiolabeled peptide): strongest cellular affinity for the SK-MES-1 cell line
- receptor binding affinity (as CPM/Cells value), tricine vs tricine/EDDA as coligand ([2]; higher than tricine/EDDA as coligand, 40 nM): 2.5 fold
- Intestine uptake (with contents) (SK-MES-1 tumors; 1 hr, i.v. 1 μg in 100 μl): 0.73±0.06 percentage of injected dose per whole sample
- Tumor/muscle ratio (SK-MES-1 tumors; 1 hr, listed as 99mTc-peptide 1): 5.1
- Intestine uptake (with contents) (SK-MES-1 tumors; 2h-blocked (300 μg non-labeled peptide 0.5 hr before), i.v. 1 μg): 0.24 ±0.09 percentage of injected dose per whole sample
- Intestine uptake (with contents) (SK-MES-1 tumors; 2 hr, i.v. 1 μg in 100 μl): 0.59±0.02 percentage of injected dose per whole sample
- Intestine uptake (with contents) (SK-MES-1 tumors; 4 hr, i.v. 1 μg in 100 μl): 0.04±0.01 percentage of injected dose per whole sample
- tissue uptake at 1 h ([3]; 1 ug, i.v. 1 μg in 100 μl, read-out: Blood uptake): 0.18 ± 0.09 %ID/g
- tissue uptake at 1 h [3, 5]: 0.19 ± 0.05 %ID/g
- tissue uptake at 1 h [3, 6]: 0.25 ± 0.07 %ID/g
- tissue uptake at 1 h ([3]; 1 ug, i.v. 1 μg in 100 μl, read-out: Stomach uptake): 0.38 ± 0.09 %ID/g
- tissue uptake at 1 h [3, 7]: 0.97 ± 0.03 %ID/g
- tissue to tissue ratio at 1 h [3, 8]: 5.36
- tissue to tissue ratio at 1 h [3, 9]: 7.46
- tissue to tissue ratio at 1 h [3, 10]: 3.59
- tissue to tissue ratio at 1 h [3, 11]: 5.1
- tissue uptake at 2 h ([3]; 1 ug, 2 hr, i.v. 1 μg in 100 μl, read-out: Heart uptake): 0.12 ± 0.04 %ID/g
- tissue uptake at 2 h ([3]; 1 ug, 2 hr, i.v. 1 μg in 100 μl, read-out: Liver uptake): 0.2 ± 0.09 %ID/g
- tissue uptake at 2 h ([3]; 1 ug, 2 hr, i.v. 1 μg in 100 μl, read-out: SG&T (salivary glands and thyroid) uptake): 0.13 ± 0.05 %ID/g
- tissue uptake at 2 h ([3]; 1 ug, 2 hr, i.v. 1 μg in 100 μl, read-out: Spleen uptake): 0.15 ± 0.04 %ID/g
- tissue uptake at 2 h ([3]; 1 ug, 2 hr, i.v. 1 μg in 100 μl, read-out: Stomach uptake): 0.25 ± 0.03 %ID/g
- tissue uptake at 2 h ([3]; 1 ug, 2 hr, i.v. 1 μg in 100 μl, read-out: Tumor uptake): 0.5 ± 0.03 %ID/g
- tissue to tissue ratio at 2 h ([3]; 1 ug, 2 hr, read-out: Tumor/liver ratio): 2.5
- tissue to tissue ratio at 2 h ([3]; 1 ug, 2 hr, read-out: Tumor/muscle ratio): 6.16
- tissue uptake at 4 h ([3]; 1 ug, i.v. 1 μg in 100 μl, read-out: Bone uptake): 0.01 %ID/g
- tissue uptake at 4 h ([3]; 1 ug, i.v. 1 μg in 100 μl, read-out: Heart uptake): 0.07 ± 0.01 %ID/g
- tissue uptake at 4 h ([3]; 1 ug, i.v. 1 μg in 100 μl, read-out: Kidney uptake): 0.27 ± 0.03 %ID/g
- tissue uptake at 4 h ([3]; 1 ug, i.v. 1 μg in 100 μl, read-out: Liver uptake): 0.07 ± 0.02 %ID/g
- tissue uptake at 4 h ([3]; 1 ug, i.v. 1 μg in 100 μl, read-out: Lung uptake): 0.04 ± 0.01 %ID/g
- tissue uptake at 4 h [3, 5]: 0.04 ± 0.01 %ID/g
- tissue uptake at 4 h ([3]; 1 ug, i.v. 1 μg in 100 μl, read-out: SG&T (salivary glands and thyroid) uptake): 0.03 ± 0.02 %ID/g
- tissue uptake at 4 h [3, 6]: 0.03 ± 0.01 %ID/g
- tissue uptake at 4 h [3, 7]: 0.2 ± 0.09 %ID/g
- tissue to tissue ratio at 4 h [3, 8]: 3.81
- tissue to tissue ratio at 4 h [3, 9]: 20
- tissue to tissue ratio at 4 h ([3]; 1 ug, read-out: Tumor/kidney ratio): 0.74
- tissue to tissue ratio at 4 h [3, 10]: 2.85
- tissue to tissue ratio at 4 h [3, 11]: 5
- tissue uptake at 2 h ([3]; 2h-blocked (300 μg non-labeled peptide 0.5 hr before), i.v. 1 μg, read-out: Blood uptake): 0.36 ± 0.02 %ID/g
- tissue uptake at 2 h ([3]; 2h-blocked (300 μg non-labeled peptide 0.5 hr before), i.v. 1 μg, read-out: Heart uptake): 0.18 ± 0.03 %ID/g
- tissue uptake at 2 h ([3]; 2h-blocked (300 μg non-labeled peptide 0.5 hr before), i.v. 1 μg, read-out: Kidney uptake): 3.2 ± 0.02 %ID/g
- tissue uptake at 2 h ([3]; 2h-blocked (300 μg non-labeled peptide 0.5 hr before), i.v. 1 μg, read-out: Liver uptake): 0.23 ± 0.04 %ID/g
- tissue uptake at 2 h ([3]; 2h-blocked (300 μg non-labeled peptide 0.5 hr before), i.v. 1 μg, read-out: Muscle uptake): 0.23 ± 0.03 %ID/g
- tissue uptake at 2 h ([3]; 2h-blocked (300 μg non-labeled peptide 0.5 hr before), i.v. 1 μg, read-out: SG&T (salivary glands and thyroid) uptake): 0.17 ± 0.02 %ID/g
- tissue uptake at 2 h ([3]; 2h-blocked (300 μg non-labeled peptide 0.5 hr before), i.v. 1 μg, read-out: Spleen uptake): 0.2 ± 0.01 %ID/g
- tissue uptake at 2 h ([3]; 2h-blocked (300 μg non-labeled peptide 0.5 hr before), i.v. 1 μg, read-out: Stomach uptake): 0.3 ± 0.02 %ID/g
- tissue to tissue ratio at 2 h ([3]; 2h-blocked (300 μg non-labeled peptide), read-out: Tumor/blood ratio): 0.8
- tissue to tissue ratio at 2 h ([3]; 2h-blocked (300 μg non-labeled peptide), read-out: Tumor/liver ratio): 1.26
- tissue to tissue ratio at 2 h ([3]; 2h-blocked (300 μg non-labeled peptide), read-out: Tumor/muscle ratio): 1.26
- Kd (A-549 cells): 4.1 ± 1.3 nM
- Bmax (SK-MES-1 cells [4]; Figure 4, saturation binding, 2 hr at 37 °C, listed as 99mTc-(tricine)-HYNIC-(Ser)3-J18): (2.2±0.2)·10^4 binding sites/cell
- binding affinity for SK-MES-1, in words (SK-MES-1 cells [4]; listed as 99mTc-peptide 1): high binding affinity; also recorded: good receptor-binding affinity
- Kd (SK-MES-1 cells [4]; saturation binding, 0.1-50 nM, 2 hr at 37 °C, blocking with 500-fold excess non-labeled peptide, three dishes per concentration, Prism 5 nonlinear regression, listed as 99mTc-HYNIC-(Ser)3-J18 (Tricine)): 3.1 ± 0.3 nM
- Bmax (SK-MES-1 cells [4]; saturation binding, 0.1-50 nM, 2 hr at 37 °C, three dishes per concentration, Prism 5 nonlinear regression, listed as 99mTc-HYNIC-(Ser)3-J18 (Tricine)): (2.2± 0.2)×10 ^4 binding sites/cell

Source: paper PMC8751750, “Effect of using different co-ligands during ^99mTc-labeling of J18 peptide on SK-MES-1 cell binding and tumor targeting” (Iranian Journal of Basic Medical Sciences, 2021)
